# Assay results taken from publication PMC4082471 (ChemMedChem, 2014).
# Tests used:
# [1] = Solubility in aqueous buffer by 1H NMR; format: physicochemical; details: for solubility compared to that of PTX alone: qualitative
# [2] = Stability in aqueous buffer and organic solvents by NMR; format: physicochemical
# [3] = heparinized rat plasma, 400 μM compound, 37 °C, 1D 1H NMR 600 MHz
# [4] = literature value, ref not given; cited from earlier work
compound,measurement,setting,value
YSAYPDSVPMMS [YSA-L2-PTX],solubility compared to that of PTX alone,[1],increased solubility
YSAYPDSVPMMS [YSA-L1-PTX],stability in organic solvents,[2]; DMSO or methanol,very stable
same,time within which degradation of the linker in buffer is observed,[2]; aqueous buffer,≤ 10 min
DYPSMAMYSPSV [DYP-L2-PTX],solubility compared to that of PTX alone,[1],increased solubility
ySAYPDSVP(L-Norleucine)(L-Homoserine)S [dYNH-L2-PTX],degradation after 8 hours incubation with plasma,[3],d-Tyr1 does not appear to be degraded
same,solubility compared to that of PTX alone,[1],increased solubility
"CC(=O)O[C@H]1C(=O)[C@@]2(C)[C@H]([C@H](OC(=O)c3ccccc3)[C@]3(O)C[C@H](OC(=O)[C@H](O)[C@@H](NC(=O)c4ccccc4)c4ccccc4)C(C)=C1C3(C)C)[C@]1(OC(C)=O)CO[C@@H]1C[C@@H]2O [PTX, paclitaxel]",aqueous solubility,[4],< 10 µg/mL
same,log P,[4],3.96
same,solubility in aqueous buffer,[1]; assessed from 1H NMR spectra in aqueous buffer,below 10 μM
